In one data set the test system is T1, B. cihuensis ADC.
T1 construct: gene aADC
Conditions: 50 mM HEPES pH 7.7, 100 mM NaCl, 20 μM PLP, 1 mM DTT, 26 °C.

A further data set has as its system T2, C. botulinum ODC (aODC).
T2 construct: gene CLI_3176

Data set [1] deals with F. necrophorum ODC (aODC). Conditions: 50 mM HEPES pH 7.7, 100 mM NaCl, 20 μM PLP, 1 mM DTT, 26 °C.
Substrate in data set [2]: N=C(N)NCCC[C@H](N)C(=O)O
The data set can be described thus: purified protein. To be noted: 50 mM HEPES pH 7.7, 100 mM NaCl, 20 μM PLP, 1 mM DTT, 26 °C.

Substrate in data set [3]: NCCCC[C@H](N)C(=O)O
As to the kind of experiment: purified protein. To be noted: 50 mM HEPES pH 7.7, 100 mM NaCl, 20 μM PLP, 1 mM DTT, 26 °C.

Substrate in data set [4]: NCCC[C@H](N)C(=O)O
The data set can be described thus: purified protein. Conditions: 50 mM HEPES pH 7.7, 100 mM NaCl, 20 μM PLP, 1 mM DTT, 26 °C.

We go through eight molecules from PMC8503589 (The Journal of Biological Chemistry, 2021).

For orientation: Km means the substrate concentration at which the rate is half of its maximum. By kcat is commonly meant the maximal rate divided by the concentration of active sites. The kcat/Km is the second-order rate constant that governs catalysis at low substrate concentration.

With `N=C(N)NCCC[C@H](N)C(=O)O` [L-arginine], the Km in the data set on B. cihuensis ADC was determined as 450 ± 10 µM; in the data set on C. botulinum ODC (aODC) it was 3800 ± 250 µM; in data set [1] it was 19000 ± 2300 µM.

For `NCCCC[C@H](N)C(=O)O` [L-lysine], the Km with C. botulinum ODC (aODC) is 2000 ± 90 µM; in data set [1] it was 4000 ± 1700 µM.

As to `NCCC[C@H](N)C(=O)O` [L-ornithine], the Michaelis constant (Km) came out at 600 ± 30 µM with C. botulinum ODC (aODC) and 650 ± 30 µM in data set [1].

B1: H. thermocellum ADC (aADC) (Acetivibrio thermocellus ATCC 27405) (protein)
chain: MVLRMNQLKTPVFDAVKRYVESNVIQFHVPGHKQGAGLEELREYIGETALKMDANGMEDLDFANNPTGVIYESEMLAAQAFGAQHAYFLVNGTTSGVQAMIMSACEPGDKIILPRNAHKSTIGGIILSGAVPVYVQPEINEKLGIAMGITVESLKKAIKENPHAKAVFIINPTYYGIASDLKSLVRIAHRYEMAVLVDEAHGAHMSFHDDFPLTAMEVGADMSAVSTHKTGGSLTQSSLLLLRGNMISPERVKQVLNLTYTSSASYLLMCSLDIARKQLATKGSDMLEETLRLARMAREEINKIEGLYAFGKELIGTPGCHDFDETKLGICVSGLGYTGYEMEAKLRKEYNIQIEMSDLSNILAIVSIGDREENLVALINALKDIAAKTEKKEYPKPPIIPPTPKMIVSPRDAFYSPKKIVPLDKSVGEISGEMVMAYPPGIPVVCMGERITQDIVDYIKILKEQKTQLQGTADPYIDHIMVLGVD
Turning to B1, in “purified protein [2]”, the Michaelis constant (Km) was found to be 130 ± 10 µM, the turnover number (kcat) was found to be 0.05 s⁻¹ and the kcat/Km is 410 M⁻¹ s⁻¹.

B2: L. ferroxidans LDC (Leptospirillum ferrooxidans C2-3) (protein)
chain: MTPYDHNRTPLFDAMVALAESRKVSFHTPGHKSGKGISTRFRKFVGPKVFSIDLTCLDEVDSLQKPRGVIREAQELAADIYGADQSFFLVNGTSGGNQAMILSVMKPGEPILLTRILHKSVVSGLIMTDCKPIFIPLQSTPDCDLLLNDRTDTIIQAMNRHPEAKKLFLTSPNYYGVTLDLPTIIQEAHSRGVTVLVDEAHGPHLHFHDDLPPSAMASNADLCVQSTHKIIGGMTQASILHAKKANIDIERLTSVLRYLQTTSPSYILMASLDLARMQMATEGKKLLSKAIDLARKARERIRKIPGLTCIDRDEVKAASGGDNDLDETKLAIGVKGIGLTGYQVSQKLNHEFGIQVEMADLHHVLVIVSIGDHREDLDRLVRAMEAISHQAMTLKSIIPINVKPPYAIASSRMNPREAFFSSHQSVPLEEALGKTAADIVTVYPPGIPLLIPGEEITQTVLDHLILMRETGATLDGLDSDNRLINIV
B2: in “purified protein [3]”, the Km is 370 ± 70 µM, the kcat stood at 0.25 s⁻¹ and the kcat/Km is 700 M⁻¹ s⁻¹. Further, in the data set “purified protein [4]”, the Km came to 28000 ± 7200 µM, the catalytic constant (kcat) amounted to 0.17 s⁻¹ and the catalytic efficiency (kcat/Km) came to 4.2 M⁻¹ s⁻¹.

B3: Psychrilyobacter sp. S5 ADC (Psychrilyobacter piezotolerans) (protein)
chain: MQNKTPLFDALKNYHKTDIVSFDVPGHKKRFQNEFSDYVGHKIIELDTNSMKELDILNNPTGVIREAHQLMADAYSADEAFFLVNGTTSGIQTMVMSACNPGDKIILPRNVHKSAINALILSGATPVYIDPEVDETLGISLGISVEKIKEALIKDPDIKAVFIINPTYYGAVSDLEEIIKICHEKNMVVLVDEAHGAHFPFHEKFPKNAMALGADMSAVSIHKTGGSLTQSSVLFLNHRRIKQERVKNMLNLTQTTSASYLLMTSLDVARKTLVTQGDEIFNDLLEMISKFREELNSIPGIRCFKSILSDKLYDFDDTKIGINLHGLGLTGFEGYDILREKYNIQMELADTHNILGIASIGDTWEDYQKLIDALKEMAENYEGNNQLIDFNELESLELVVSPRDAFYSETESIPLSEAIGKVSGESIMVYPPGIPLLIQGERITKDLIDHIYFLKEQKAVITGMNDKTLNNISILKGEHR
Regarding B3, in “purified protein [2]”, the Km worked out at 210 ± 20 µM, the catalytic constant (kcat) was 0.3 s⁻¹ and the kcat/Km was 1400 M⁻¹ s⁻¹. In addition, in the data set “purified protein [3]”, the Michaelis constant (Km) was determined as 6600 ± 1300 µM, the catalytic constant (kcat) was found to be 0.06 s⁻¹ and the kcat/Km worked out at 9.5 M⁻¹ s⁻¹.

B4: M. blatticola ADC (Methanimicrococcus blatticola) (protein)
chain: MDQNATPIIDALREFDQKNITSYDVPGHKRGIREDDFQKLVGKEVYLMDVNSPVGMDTFAHPKGVIKHSLELAAEAYKADNAFYLVNGSSSGVQIMIMTVCYDGEKILIPRNAHKSVTNSLILSGAVPVFMEPEINQNFAIASGMTLKTIQKYVEANPDAKALFLVYPTYYGACADLEQIIEYAHSKDIVVMVDQAHGAHFSFSSALPKSAAELGADLVVASTHKTGGSLTQSAMLLHNEGLVKYHSIKKRVLMFHTTSPSYLLMASLESSRKLLATQGEEIFHELVHECRKVKKEISKIPGLSVLDENEGVTTMTYDPTKIVINVTKLGLDGFDVYDIMFEKYGIQMELAEPTIVLAVIGIGDTKETIWRLVDAFRDLSDTYYGKYEMLDIPEEIVYVPPQILSPRQAFYADKVSVKIGEAVGRVAAEAVMIYPPGIPICIPGELITAETIEEILYCQENSDCVQKDSKEKDHILVVDDSTE
In the case of B4, the Km in the data set “purified protein [2]” was found to be 650 ± 60 µM.

B5: C. exile ODC (Caldisericum exile AZM16c01) (protein)
chain: MEQERAPLYEAVSKYIKRKMIPFHMPGHSQGKGAPKILKRLFGDKFFDFDLTEVSGLDYLHYAQGVIREAENLASSLYGTEATIFLVNGTTAGVHAMILDSVRENEKIIIGRNSHRSVIGGILLAKAKPVFVQPEFNEEFGIITNVTPESIKKAITENPDAKAVLVTTPNYYGLQGRIKDIIDIVHENGMRALVDEAHGAHFPFNSKFPKSAIYLGADLVTQSAHKTLPTLTQTSFLHIPSKDVNVDRIEQILSIIESSSPSYIFMTALDVARREMALHGKEMWDKAIEVAEYARERISALDGFKVITDKTINGKDVYAFDPIKLTINVQELGYSGFEFEHILNKNGIEIELADLQNVLLFITIGTSKRDIDTLVSVLKRIEPRKEKSTVRMPKLPEAPSFAMLPFEAFQREFEVVPLRETKGRVSWGIVAPYPPGIPVLAPGMIIDEECIEFTQEVFEKGGLVQGSIRYGSEIAIRVVKGE
In the case of B5, in “purified protein [2]”, the Km was 540 ± 40 µM, the turnover number (kcat) was 0.04 ± 0.002 s⁻¹ and the specificity constant (kcat/Km) stood at 82 ± 3.2 M⁻¹ s⁻¹. Besides, in “purified protein [4]”, the Michaelis-Menten constant (Km) was determined as 180 ± 10 µM, the turnover number (kcat) is 0.11 s⁻¹ and the kcat/Km was found to be 590 M⁻¹ s⁻¹.
